# Measured values from US20250210128A1, “COMPUTER-IMPLEMENTED DESIGN OF PEPTIDE:RECEPTOR SIGNALING COMPLEXES FOR ENHANCED CHEMOTAXIS” (Ecole Polytechnique Federale de Lausanne (EPFL), priority 2022, published 2025).
# B1: L41A CXCR4: CXCR4 point mutant L41A (protein)
# chain: MEGISIYTSDNYTEEMGSGDYDSMKEPCFREENANFNKIFAPTIYSIIFLTGIVGNGLVILVMGYQKKLRSMTDKYRLHLSVADLLFVITLPFWAVDAVANWYFGNFLCKAVHVIYTVNLYSSVLILAFISLDRYLAIVHATNSQRPRKLLAEKVVYVGVWIPALLLTIPDFIFANVSEADDRYICDRFYPNDLWVVVFQFQHIMVGLILPGIVILSCYCIIISKLSHSKGHQKRKALKTTVILILAFFACWLPYYIGISIDSFILLEIIKQGCEFENTVHKWISITEALAFFHCCLNPILYAFLGAKFKTSAQHALTSVSRGSSLKILSKGKRGGHSSVSTESESSSFHSS
# B2: Cdes1: first-generation combinatorial design CXCR4 receptor variant with binding hotspot motif at TM1/7 interface (protein)
# chain: MEGISIYTSDNYTEEMGSGDYDSMKEPCFREENANFAKIFLPTIFSIIFLTGIVGNGLVILVMGYQKKLRSMTDKYRLHLSVADLLFVITLPFWAVDAVANWYFGNFLCKAVHVIYTVNLYSSVLILAFISLDRYLAIVHATNSQRPRKLLAEKVVYVGVWIPALLLTIPDFIFANVSEADDRYICDRFYPNDLWVVVFQFQHIMVGLILPGIVILSCYCIIISKLSHSKGHQKRKALKTTVILILAFFACWLPYYIGISIDSFILLEIIKQGCEFENTVHKWIMITEALAFFHCCLNPILYAFLGAKFKTSAQHALTSVSRGSSLKILSKGKRGGHSSVSTESESSSFHSS
# modifications: Cdes1
# B3: Cdes2: second-generation combinatorial design CXCR4 variant combining the 2 designed binding hotspot motifs (protein)
# chain: MEGISIYTSDNYTEEMGSGDYDSMKEPCFREENANFAKIFLPTIFSIIFLTGIVGNGLVILVMGYQKKLRSMTDKYRLHLSVADLLFVITLPFWAVDAVANWYFGNFLCKAVHVIYTVNLYSSVLILAFISLDRYLAIVHATNSQRPRKLLAEKVVYVGVWIPALLLTIPDFIFANVFEAQDRYVCDRFYPNDLWVVVFQFQHIMVGLILPGIVILSCYCIIISKLSHSKGHQKRKALKTTVILILAFFACWLPYYIGISIDSFILLEIIKQGCEFENTVHKWIMITEALAFFHCCLNPILYAFLGAKFKTSAQHALTSVSRGSSLKILSKGKRGGHSSVSTESESSSFHSS
# modifications: Cdes2
# B4: Ldes: CXCR4 variant assembled from activating point mutations on TM1, TM3 and ECL2 of the point mutant library (protein)
# chain: MEGISIYTSDNYTEEMGSGDYDSMKEPCFREENANFNKIFIPTIYSIIFLTGIVGNGLVILVMGYQKKLRSMTDKYRLHLSVADLLFVITLPFWAVDAVANWYFGNFLCKAVNVIYTVNLYSSVLILAFISLDRYLAIVHATNSQRPRKLLAEKVVYVGVWIPALLLTIPDFIFANVAEADDRYICDRFYPNDLWVVVFQFQHIMVGLILPGIVILSCYCIIISKLSHSKGHQKRKALKTTVILILAFFACWLPYYIGISIDSFILLEIIKQGCEFENTVHKWISITEALAFFHCCLNPILYAFLGAKFKTSAQHALTSVSRGSSLKILSKGKRGGHSSVSTESESSSFHSS
# modifications: Ldes
# B5: CLdes: CXCR4 variant combining the H113N mutation with the Cdes2 design (protein)
# chain: MEGISIYTSDNYTEEMGSGDYDSMKEPCFREENANFAKIFLPTIFSIIFLTGIVGNGLVILVMGYQKKLRSMTDKYRLHLSVADLLFVITLPFWAVDAVANWYFGNFLCKAVNVIYTVNLYSSVLILAFISLDRYLAIVHATNSQRPRKLLAEKVVYVGVWIPALLLTIPDFIFANVFEAQDRYVCDRFYPNDLWVVVFQFQHIMVGLILPGIVILSCYCIIISKLSHSKGHQKRKALKTTVILILAFFACWLPYYIGISIDSFILLEIIKQGCEFENTVHKWIMITEALAFFHCCLNPILYAFLGAKFKTSAQHALTSVSRGSSLKILSKGKRGGHSSVSTESESSSFHSS
# modifications: CLdes
# notes: CXCR4 variant combining the H113N mutation with the Cdes2 design
# Assays:
# CXCR4 [1] = target: T1, CXCR4 (Homo sapiens, UniProt P61073, L41A); assay: Calcium mobilization assay in transfected HEK 293T cells; type: cell-based; conditions: peptide-induced, point mutation, FIG. 15A
# T1 construct: WT CXCR4 with an N-terminal 3×HA-tag, Gβ3-WT, and GNA15 sub-cloned into pcDNA3.1+ were obtained from the cDNA Resource Center; host or cells: HEK 293T
# Method: (§1) 40,000 HEK 293T cells were transiently transfected with 50 ng HA3-CXCR4, 10 ng GNA15 in pcDNA3.1+. To equalize receptor surface expression, 75 ng of HA3-CXCR4 for the Cdes2 Design variant. Cells were first seeded in 100 uL DMEM (Gibco, ref: 41965-039) 10% FBS in a black-walled, clear-bottom 96-well plate coated with poly-lysine (Sigma, P6407-5MG). Directly after cell loading, 50 uL of the mixture containing 0.5 μL Lipofectamine 2000 (Invitrogen, ref: 11668-019) and the DNA was added on top of the cells. The cells were then left to incubate at 37° C., 5% CO2, 95% relative humidity for 20 h, after which, media was refreshed with 150 uL DMEM+10% FBS. Cells were assayed 48 h post-transfection. Cells were washed with 200 μL FLIPR6 buffer (HBSS+20 mM HEPES, pH 7.4), then incubated at 37° C., 5% CO2, 95% relative humidity for 2 h in 200 μL dye buffer according to manufacturer's protocol. Just before the assay, 5× concentrated peptide solutions were prepared in FLIPR6 buffer in a V-bottom 96-well plate. After incubation, peptide solutions were added at a rate of 16 μL/s after 30 s and fluorescence changes were monitored for 90 s after addition using microplate reader FlexStation3 (Molecular Devices). The maximum response after correction by the mock-transfected condition was averaged from three replicates. […]
# CXCR4 [2] = target: T2, CXCR4 (Homo sapiens, UniProt P61073, N37A/S285M/Y45F); assay: Gαi dissociation BRET (Gi activation) in transfected HEK 293T cells; type: cell-based; conditions: HEK cells; cell based assays reporting Gi activation and Ca2+ mobilization
# T2 construct: WT CXCR4 with an N-terminal 3×HA-tag, Gβ3-WT, and GNA15 sub-cloned into pcDNA3.1+ were obtained from the cDNA Resource Center; host or cells: HEK 293T
# Method: (§2) 40,000 HEK 293T cells were transiently transfected with HA3-CXCR4, Gαi1-91-Rluc8, Gβ3-WT and Gγ9-GFP2 in pcDNA3.1+ at a ratio of 10:1:10:5 respectively. Cells were first seeded in 100 μL DMEM 10% FBS in a poly-lysine coated, white-walled, white-bottom 96-well plate. Directly after cell loading, 50 μL of the mixture containing Lipofectamine 2000 and the DNA was added on top of the cells. The cells were then left to incubate at 37° C., 5% CO2, 95% relative humidity for 20 h, after which, 150 μL media was refreshed. Cells were assayed 48 h post-transfection. Cells were washed with 150 μL PBS, then 40 μL BRET buffer (HBSS, 0.2% Glucose) was added to each well. Coelenterazine 400a was first added at a final concentration of 2.5 μM and BRET ratios were measured once using Mithras^2 LB 943 plate reader. After the first measurement, […] agonist solution was added to each well and BRET ratios were measured for another 30 min using Mithras^2 LB 943 plate reader. Mock-transfected controls were subtracted from the data. Maximum values were then plotted against selected concentrations and fitted to a sigmoidal curve. (n=3, SD plotted)
# CXCR4 [3] = assay: as above; type: cell-based, human; conditions: for enhanced potency in G-coupling (Gi): designed receptor vs WT CXCR4 scaffold, against WT CXCL12 peptide
# Method: as §2
# CXCR4 [4] = assay: Calcium mobilization assay in transfected HEK 293T cells; type: cell-based, human; conditions: designed receptor vs WT CXCR4, CXCL12-derived peptide, HEK cells
# Method: as §1
molecule,measurement,setting,value
B1,calcium release,CXCR4 [1],Enhanced
B2,sensitivity to CXCL12,CXCR4 [2],enhanced sensitivity
B3,enhanced potency in G-coupling (Gi),CXCR4 [3],3.2 fold over WT
same,enhanced potency in calcium mobilization,CXCR4 [4],3.1 fold over WT
B4,enhanced potency in G-coupling (Gi),CXCR4 [3],~11 fold over WT
same,higher Gi efficacy,"CXCR4 [3]; designed receptor vs starting CXCR4 WT scaffold, WT CXCL12 peptide",120%
B5,enhanced potency in G-coupling (Gi),CXCR4 [3],more than 9 fold over WT
